Results published in patent publication US20240360203A1.
Where two headings read alike, the source gives them in different places.

Legend:
Test in all cases: cell-based or functional assay
[1] = molecular target: SARS-CoV-2 BA.1.1 + P1162S spike protein (SARS-CoV-2)
[2] = molecular target: SARS-CoV-2 BA.5.8 + P1162L spike protein (SARS-CoV-2)
[3] = molecular target: SARS-CoV-2 D614G spike protein (SARS-CoV-2) (UniProt P0DTC2)
[4] = molecular target: SARS-CoV-2 BA.4/5+K444T Spike on pseudovirus (SARS-CoV-2) (UniProt P0DTC2)
[5] = molecular target: SARS-CoV-2 D614G spike protein (SARS-CoV-2) (UniProt P0DTC2); remark: listed apart in the source
[6] = molecular target: SARS-CoV-2 D614G spike protein (SARS-CoV-2) (UniProt P0DTC2); remark: listed apart in the source
[7] = molecular target: SARS-CoV-2 D614G spike protein (SARS-CoV-2) (UniProt P0DTC2); remark: listed apart in the source
[8] = molecular target: SARS-CoV-2 D614G spike protein (SARS-CoV-2) (UniProt P0DTC2); remark: listed apart in the source

Bebtelovimab (antibody)
pseudovirus neutralization EC50 [1]: 0.12 ng/mL
pseudovirus neutralization EC80 [1]: 1.4 ng/mL
pseudovirus neutralization EC90 [1]: 6 ng/mL
pseudovirus neutralization Emax (% neutralization) [1]: 100
pseudovirus neutralization EC50 [2]: 0.13 ng/mL
pseudovirus neutralization EC80 [2]: 1.1 ng/mL
pseudovirus neutralization EC90 [2]: 3.7 ng/mL
pseudovirus neutralization Emax (% neutralization) [2]: 99.9
pseudovirus neutralization EC50 [3]: 0.57 ng/mL
pseudovirus neutralization EC50, TMPRSS2-Vero E6 (bebtelovimab + isotype) [3]: 1.7 ng/mL
pseudovirus neutralization EC50, Vero E6 (bebtelovimab + isotype) [3]: 0.64 ng/mL
pseudovirus neutralization EC80 [3]: 4.9 ng/mL
pseudovirus neutralization EC80, TMPRSS2-Vero E6 (bebtelovimab + isotype) [3]: 11 ng/mL
pseudovirus neutralization EC80, Vero E6 (bebtelovimab + isotype) [3]: 2.7 ng/mL
pseudovirus neutralization EC90 [3]: 18 ng/mL
pseudovirus neutralization EC90, TMPRSS2-Vero E6 (bebtelovimab + isotype) [3]: 32 ng/mL
pseudovirus neutralization EC90, Vero E6 (bebtelovimab + isotype) [3]: 6.1 ng/mL
pseudovirus neutralization Emax (% neutralization) [3]: 99.9
pseudovirus neutralization Emax, TMPRSS2-Vero E6 (bebtelovimab + isotype) (% neutralization) [3]: 99.4
pseudovirus neutralization Emax, Vero E6 (bebtelovimab + isotype) (% neutralization) [3]: 99.4
IC50, pseudovirus neutralization [4]: 1220 ng/mL
pseudovirus neutralization EC50, Vero E6 (bebtelovimab + isotype) [5]: 0.29 ng/mL
pseudovirus neutralization EC80, Vero E6 (bebtelovimab + isotype) [6]: 2.9 ng/mL
pseudovirus neutralization EC90, Vero E6 (bebtelovimab + isotype) [7]: 11 ng/mL
pseudovirus neutralization Emax, Vero E6 (bebtelovimab + isotype) (% neutralization) [8]: 99.7

Sotrovimab VH/VL-huIgG1-LS (antibody)
pseudovirus neutralization EC50, Vero E6 [3]: 35.2 ng/mL
pseudovirus neutralization EC50, Vero E6 (sotrovimab VH/VL-huIgG1-LS + isotype) [5]: 14 ng/mL
pseudovirus neutralization EC80, Vero E6 (sotrovimab VH/VL-huIgG1-LS + isotype) [6]: 69 ng/mL
pseudovirus neutralization EC90, Vero E6 (sotrovimab VH/VL-huIgG1-LS + isotype) [7]: 170 ng/mL
pseudovirus neutralization Emax, Vero E6 (sotrovimab VH/VL-huIgG1-LS + isotype) (% neutralization) [8]: 98.3

Sotrovimab VH/VL-hamIgG2a (antibody)
pseudovirus neutralization EC50, Vero E6 [3]: 8.51 ng/mL

Sotrovimab VH/VL-huIgG1 (antibody)
pseudovirus neutralization EC50, Vero E6 [3]: 27.9 ng/mL

Sotrovimab VH/VL (human IgG1 molecule expressing the same variable regions of Sotrovimab) (antibody)
IC50, pseudovirus neutralization [4]: 304 ng/mL
